Drawing on PMC3709774, “Preparation of Novel Poly(hydroxyethyl methacrylate-coglycidyl methacrylate)-Grafted Core-Shell Magnetic Chitosan Microspheres and Immobilization of Lactase” (International Journal of Molecular Sciences, 2013), this text covers Km and kcat for 1 protein.

Substrate in this series: O=[N+]([O-])c1ccccc1O[C@@H]1O[C@H](CO)[C@H](O)[C@H](O)[C@H]1O
Kind of series: purified protein. It is filed as biochemical, Kluyveromyces lactis. The note with it: free enzyme, 37 °C, assay buffer 50 mM potassium phosphate, 1 mmol/L MgCl2, pH 6.5 (general activity assay), substrate range printed as 6.3-31.5 μmol/L, which conflicts with the mmol/L unit of Km.

B1: lactase (DSM Maxilact 5000) (Kluyveromyces lactis NRRL Y-1140) (protein)
chain: MSCLIPENLRNPKKVHENRLPTRAYYYDQDIFESLNGPWAFALFDAPLDAPDAKNLDWETAKKWSTISVPSHWELQEDWKYGKPIYTNVQYPIPIDIPNPPTVNPTGVYARTFELDSKSIESFEHRLRFEGVDNCYELYVNGQYVGFNKGSRNGAEFDIQKYVSEGENLVVVKVFKWSDSTYIEDQDQWWLSGIYRDVSLLKLPKKAHIEDVRVTTTFVDSQYQDAELSVKVDVQGSSYDHINFTLYEPEDGSKVYDASSLLNEENGNTTFSTKEFISFSTKKNEETAFKINVKAPEHWTAENPTLYKYQLDLIGSDGSVIQSIKHHVGFRQVELKDGNITVNGKDILFRGVNRHDHHPRFGRAVPLDFVVRDLILMKKFNINAVRNSHYPNHPKVYDLFDKLGFWVIDEADLETHGVQEPFNRHTNLEAEYPDTKNKLYDVNAHYLSDNPEYEVAYLDRASQLVLRDVNHPSIIIWSLGNEACYGRNHKAMYKLIKQLDPTRLVHYEGDLNALSADIFSFMYPTFEIMERWRKNHTDENGKFEKPLILCEYGHAMGNGPGSLKEYQELFYKEKFYQGGFIWEWANHGIEFEDVSTADGKLHKAYAYGGDFKEEVHDGVFIMDGLCNSEHNPTPGLVEYKKVIEPVHIKIAHGSVTITNKHDFITTDHLLFIDKDTGKTIDVPSLKPEESVTIPSDTTYVVAVLKDDAGVLKAGHEIAWGQAELPLKVPDFVTETAEKAAKINDGKRYVSVESSGLHFILDKLLGKIESLKVKGKEISSKFEGSSITFWRPPTNNDEPRDFKNWKKYNIDLMKQNIHGVSVEKGSNGSLAVVTVNSRISPVVFYYGFETVQKYTIFANKINLNTSMKLTGEYQPPDFPRVGYEFWLGDSYESFEWLGRGPGESYPDKKESQRFGLYDSKDVEEFVYDYPQENGNHTDTHFLNIKFEGAGKLSIFQKEKPFNFKISDEYGVDEAAHACDVKRYGRHYLRLDHAIHGVGSEACGPAVLDQYRLKAQDFNFEFDLAFE
notes: commercial enzyme preparation, free (not immobilised)
Broadly, the Km is the substrate concentration at which the rate is half of its maximum. As usually defined, the kcat is the maximal rate divided by the concentration of active sites. In the case of B1, the Km is on record as 25.4 mmol/L and the kcat was 1182.9 s⁻¹.
